Reference: patent US20140155325A1 (Janssen / Centocor, published 2014)
Changes are numbered by the printed parent chain. Names and notes keep the numbering of the source.

B1: P54CR4-31 (designed binder)
chain: LPAPKNLVVSEVTEDSLRLSWTAPDAAFDSFLIQYQESEKVGEAINLTVPGSERSYDLTGLKPGTEYTVSIYGVLGSYVFEHDVMLPLSAEFTT
notes: not shown: C-terminal poly-histidine tag
B2: ECB5 (designed binder, not shown: small tags and cut ends)
chain: MLPAPKNLVVSEVTEDSARLSWADPHGFYDSFLIQYQESEKVGEAIVLTVPGSERSYDLTGLKPGTEYTVSIYGVHNVYKDTNMRGLPLSAIFTTGGGGSGGGGSGGGGSGGGGSMLPAPKNLVVSRVTEDSARLSWTAPDAAFDSFWIRYFEFLGSGEAIVLTVPGSERSYDLTGLKPGTEYVVNIMGVKGGKISPPLSAIFTT
B3: P53A1R5-17 (designed binder, not shown: small tags and cut ends)
chain: LPAPKNLVVSEVTEDSLRLSWADPHGFYDSFLIQYQESEKVGEAINLTVPGSERSYDLTGLKPGTEYTVSIYGVHNVYKDTNMRGLPLSAEFTT
B4: Bispecific Centyrin (83-H9) (designed binder)
chain: B2 chain with A23D, H26W, G27A, D30E, N186Q, M188I, K194H, P197L
B5: P114AR7P93-H9 (designed binder, not shown: small tags and cut ends)
chain: LPAPKNLVVSRVTEDSARLSWTAPDAAFDSFWIRYFEFLGSGEAIVLTVPGSERSYDLTGLKPGTEYVVQIIGVKGGHISLPLSAIFTT
B6: ECB109 (designed binder, not shown: small tags and cut ends)
chain: MLPAPKNLVVSEVTEDSARLSWDDPHAFYESFLIQYQESEKVGEAIVLTVPGSERSYDLTGLKPGTEYTVSIYGVHNVYKDTNIRGLPLSAIFTTAPAPAPAPAPLPAPKNLVVSRVTEDSARLSWTAPDAAFDSFWIRYFEFLGSGEAIVLTVPGSERSYDLTGLKPGTEYVVNILSVKGGSISPPLSAIFTT
B7: ECB95 (designed binder, not shown: small tags and cut ends)
chain: B6 chain with H26W, L144V, S178G
B8: ECB108 (designed binder, not shown: small tags and cut ends)
chain: B6 chain with L144V, G145S, S146K, E148D, S178G
B9: ECB106 (designed binder, not shown: small tags and cut ends)
chain: B6 chain with S178G, S183K
B10: ECB107 (designed binder, not shown: small tags and cut ends)
chain: B6 chain with L144V, S178G
B11: ECB94 (designed binder, not shown: small tags and cut ends)
chain: B6 chain with H26W, S178G, S183K
B12: ECB15 (designed binder, not shown: small tags and cut ends)
chain: B6 chain with H26W, I84M, L177M, S178G, S183K
B13: ECB96 (designed binder, not shown: small tags and cut ends)
chain: B6 chain with H26W, L144V, G145S, S146K, E148D, S178G
B14: A3 K78S (designed binder)
chain: LPAPKNLVVSEVTEDSARLSWDDPWAFYESFLIQYQESEKVGEAIVLTVPGSERSYDLTGLKPGTEYTVSIYGVHNVYKDTNMRGLPLSAIFTTAPAPAPAPAPLPAPKNLVVSRVTEDSARLSWTAPDAAFDSFWIRYFEFLGSGEAIVLTVPGSERSYDLTGLKPGTEYVVNIMGVKGGSISPPLSAIFTT
B15: A3 W32S (designed binder)
chain: B14 chain with W136S, S182K
B16: A3 V68S (designed binder)
chain: B14 chain with V172S, S182K
B17: A3 P81S (designed binder)
chain: B14 chain with S182K, P185S
B18: A3 N70S (designed binder)
chain: B14 chain with N174S, S182K
B19: A3 G40S (designed binder)
chain: B14 chain with G144S, S182K
B20: A3 L39S (designed binder)
chain: B14 chain with L143S, S182K
B21: A3 F38S (designed binder)
chain: B14 chain with F142S, S182K
B22: A3 F36S (designed binder)
chain: B14 chain with F140S, S182K
B23: P114AR7P93-G8 (designed binder, not shown: small tags and cut ends)
chain: B5 chain with G60D, V68G, Q70T, I72N, H78R, I79V, L81T
B24: P114AR5P74-A5 (designed binder, not shown: small tags and cut ends)
chain: B5 chain with F36D, F38V, L39V, G40V, S41G, V68Y, Q70N, I72L, H78S, L81V
B25: P114AR7P95-D4 (designed binder, not shown: small tags and cut ends)
chain: B5 chain with I72L, H78Y, L81I
B26: P114AR7P95-F10 (designed binder, not shown: small tags and cut ends)
chain: B5 chain with L39T, G40T, S41A, Q70N, I72M, H78S, L81P
B27: P114AR7P92-H5 (designed binder, not shown: small tags and cut ends)
chain: B5 chain with F36L, G40L, S41G, I72M, H78T, I79V, L81P
B28: P114AR7P95-G7 (designed binder, not shown: small tags and cut ends)
chain: B5 chain with F38L, G40S, S41T, Q70N, I72M, H78S, L81P
B29: P114AR5P75-E9 (designed binder, not shown: small tags and cut ends)
chain: B5 chain with W32F, F36D, G40R, V68W, Q70T, I72L, H78L, I79V, L81T
B30: P114AR7P92-G8 (designed binder, not shown: small tags and cut ends)
chain: B5 chain with W32V, I72L, H78Y, L81I
B31: P114AR7P94-A3 (designed binder, not shown: small tags and cut ends)
chain: B5 chain with Q70N, I72M, H78K, L81P
B32: P114AR7P95-H8 (designed binder, not shown: small tags and cut ends)
chain: B5 chain with L39V, G40S, S41K, Q70N, I72M, H78S, L81P
B33: P114AR7P92-F6 (designed binder, not shown: small tags and cut ends)
chain: B5 chain with Q70N, I72L, H78G, I79L, L81V
B34: P114AR7P94-E5 (designed binder, not shown: small tags and cut ends)
chain: B5 chain with V68A, Q70N, I72M, H78R, I79V, L81V

Target: T1, human EGFR (epidermal growth factor receptor) on cells (human, UniProt P00533 25-1210)
T1 construct: Endogenous EGFR of human tumor cell lines; also called HER-1; Erb-B1
Test: A431 cell binding, anti-His-Alexa488

| EC50 [nM] | Binder |
| --- | --- |
| > 20000 | B1 |

Target: human EGFR (epidermal growth factor receptor) on cells (human) (UniProt P00533)
Test: not given

| IC50, inhibition of EGF-stimulated EGFR phosphorylation (relative pEGFR, RCLU) in H596 cells, +2.5 ng/mL EGF [+2.5ng/mL EGF), IC50 table] [nM] | Binder |
| --- | --- |
| 83.2 | B2 |

Target: human EGFR (epidermal growth factor receptor) on cells (human) (UniProt P00533)
Test: not given
Remark: another data set of the same source

| IC50, inhibition of EGF-stimulated EGFR phosphorylation (relative pEGFR, RCLU) in H292 cells, +50 ng/mL EGF [+50ng/mL EGF), IC50 table] [nM] | Binder |
| --- | --- |
| 76.6 | B2 |

Target: T1, human EGFR (epidermal growth factor …)
Test: cell-based or functional assay

| IC50, inhibition of EGF-stimulated EGFR phosphorylation (relative pEGFR, RCLU) in H596 cells, +2.5 ng/mL EGF [+2.5ng/mL EGF), IC50 table] [nM] | Binder |
| --- | --- |
| 35.4 | B3 |

Target: human c-Met (hepatocyte growth factor receptor) on cells (human, UniProt P08581 25-1390)
Test: cell-based or functional assay

| IC50, inhibition of HGF-stimulated c-Met phosphorylation (relative pc-Met, RCLU) in H596 cells, +5 ng/mL HGF [+5ng/mL HGF), IC50 table] [nM] | Binder |
| --- | --- |
| 0.0789 | B4 |
| 80.8 | B5 |

Target: human EGFR (epidermal growth factor receptor) on cells (human) (UniProt P00533)
Test: cell-based or functional assay

| fold decrease of the IC50 for inhibition of EGFR phosphorylation in NCI-H441 cells against monospecific P53A1R5-17v2 [fold] | Binder |
| --- | --- |
| 30 | B2 |

Target: T1, human EGFR (epidermal growth factor …)
Test: cell-based or functional assay
Remark: another data set of the same source

| IC50, inhibition of EGF-stimulated EGFR phosphorylation (relative pEGFR, RCLU) in H292 cells, +50 ng/mL EGF [+50ng/mL EGF), IC50 table] [nM] | Binder |
| --- | --- |
| 151 | B3 |

Target: T1, human EGFR (epidermal growth factor …)
Test: cell-based or functional assay
Remark: another data set of the same source

| IC50, inhibition of EGF-stimulated EGFR phosphorylation (relative pEGFR, RCLU) in H441 cells, +10 ng/mL EGF [+10ng/mL EGF), IC50 table] [nM] | Binder |
| --- | --- |
| 70.2 | B3 |

Target: recombinant human c-Met Fc chimera (human) (UniProt P08581)
Test: SPR (ProteOn), protocol of Example 3

| Kd [nM] | Binder |
| --- | --- |
| 2.1 | B6 |
| 6.2 | B7 |
| 25.5 | B8 |
| 5.1 | B9 |
| 9 | B10 |
| 4.3 | B11 |
| 2.6 | B12 |
| 22.1 | B13 |

Target: recombinant human c-Met Fc chimera (human) (UniProt P08581)
Test: SPR, serine scan in the context of ECB15

| Fold Change of KD against parent [fold] | Kd [nM] | koff [s⁻¹] | kon [M⁻¹ s⁻¹] | Binder |
| --- | --- | --- | --- | --- |
| 0.75 | 0.3 | 0.00015 | 440000 | B14 |
| 74.5 | 29.8 | 0.0086 | 289000 | B15 |
| 9 | 3.6 | 0.0012 | 329000 | B16 |
| 4.25 | 1.7 | 0.000536 | 321000 | B17 |
| 14.8 | 5.9 | 0.00249 | 425000 | B18 |
| 4.25 | 1.7 | 0.00032 | 185000 | B19 |
| 6.75 | 2.7 | 0.00127 | 475000 | B20 |
| 1790 | 717 | 0.0323 | 45100 | B21 |
| 68 | 27.2 | 0.00512 | 188000 | B22 |

Target: human EGFR (epidermal growth factor receptor) on cells (human) (UniProt P00533)
Test: not given
Remark: another data set of the same source

| IC50, inhibition of EGF-stimulated EGFR phosphorylation (relative pEGFR, RCLU) in H441 cells, +10 ng/mL EGF [+10ng/mL EGF), IC50 table] [nM] | Binder |
| --- | --- |
| 2.3 | B2 |

Target: recombinant human c-Met Fc chimera (human) (UniProt P08581)
Test: SPR (ProteOn), c-Met-Fc captured by anti-human Fc

| Kd [nM] | Binder |
| --- | --- |
| 6.9 | B23 |
| 10.1 | B24 |
| 0.4 | B25 |
| 4.2 | B26 |
| 11.6 | B27 |
| 20 | B28 |
| 45.8 | B29 |
| 1 | B30 |
| 0.4 | B31 |
| 3.7 | B32 |
| 3.1 | B33 |
| 4.2 | B34 |
| 3.3 | B5 |

Target: recombinant human c-Met Fc chimera (human) (UniProt P08581)
Test: HGF competition (biotinylated HGF on coated c-Met-Fc)

| IC50 [nM] | Binder |
| --- | --- |
| 1 | B23 |
| 5.2 | B24 |
| 1.4 | B26 |
| 51.9 | B29 |
| 1.6 | B30 |
| 0.2 | B31 |
| 2.2 | B33 |
| 0.7 | B34 |
| 2.9 | B5 |
